Where “and” joins values, the source holds several entries; their conditions need not be identical. Equal entries are not always repeated. Each block holds one binder with its values, some of them ahead of it.
B1: HypD (natural protein, E. coli, UniProt P24192 1-373, looked up)
chain: MRFVDEYRAPEQVMQLIEHLRERASHLSYTAERPLRIMEVCGGHTHAIFKFGLDQLLPENVEFIHGPGCPVCVLPMGRIDTCVEIASHPEVIFCTFGDAMRVPGKQGSLLQAKARGADVRIVYSPMDALKLAQENPTRKVVFFGLGFETTMPTTAITLQQAKARDVQNFYFFCQHITLIPTLRSLLEQPDNGIDAFLAPGHVSMVIGTDAYNFIASDFHRPLVVAGFEPLDLLQGVVMLVQQKIAAHSKVENQYRRVVPDAGNLLAQQAIADVFCVNGDSEWRGLGVIESSGVHLTPDYQRFDAEAHFRPAPQQVCDDPRARCGEVLTGKCKPHQCPLFGNTCNPQTAFGALMVSSEGACAAWYQYRQQESEA
notes: HypD, hydrogenase maturation factor of Escherichia coli; printed mass 41,363.4 Da without and 41,715 Da with the [4Fe-4S] cluster; Carries a [4Fe-4S] cluster in all isolated complexes; No tag is named for HypD; also called native HypD; source: co-purified anoxically with it (StrepTactin Sepharose, when required Q-Sepharose)
B2: StrepII-tagged HypC (natural protein, E. coli, UniProt P0AAM3 2-90, looked up)
chain: CIGVPGQIRTIDGNQAKVDVCGIQRDVDLTLVGSCDENGQPRVGQWVLVHVGFAMSVINEAEARDTLDALQNMFDVEPDVGALLYGEEK
modifications: mixed population: unmodified species and species with +26 Da, +28 Da (CO or formyl), +16 Da (oxidation) and +136 Da (proposed Fe(CN)2CO) modifications, all associated with or dependent on the N-terminal cysteine residue (Cys2)
notes: HypC, hydrogenase maturation factor of Escherichia coli; lacks M1 (formyl-methionine lost after translation), so that Cys2 is the N-terminal residue; deconvoluted mass with the StrepII tag 10,641.5 Da; also called HypCStrep; StrepII-HypC; source: purified anoxically (StrepTactin Sepharose, when required Q-Sepharose); not shown: StrepII, C-terminal, kept

Legend:
StrepII-tagged HypC = target: B2; assay: native MS; anaerobically isolated StrepII-tagged HypC-HypD complexes, about 10 μM, 500 mM ammonium acetate pH 6.8, nano-ESI High-Mass Q-TOF II, collision energy 30 V (90 V for CID dissociation); complexes from DHP-D, ΔsufA, ΔiscU and ΔentC-ΔfeoB strains; conditions: both partners purified
HypD [1] = target: B1; assay: pull-down; StrepII-tagged HypC co-produced with HypD in E. coli strains with defects in iron metabolism; anoxic StrepTactin Sepharose affinity purification; SDS-PAGE with Coomassie staining and western blots with antisera against HypD and HypC; conditions: partners not purified
HypD [2] = target: B1; assay: native MS; anaerobically isolated StrepII-tagged HypC-HypD complexes, about 10 μM, 500 mM ammonium acetate pH 6.8, nano-ESI High-Mass Q-TOF II, collision energy 30 V (90 V for CID dissociation); complexes from DHP-D, ΔsufA, ΔiscU and ΔentC-ΔfeoB strains; conditions: both partners purified

Binder: B1
stoichiometry N (StrepII-tagged HypC): 1 HypC:HypD | stoichiometry of a minor complex species (StrepII-tagged HypC): 2 HypC:HypD (2:1) and 1 HypC:HypD (2:2)

Binder: B2
binding result (HypD [1]): binds

binding result (HypD [2]): binds
B3: StrepII-tagged HypC(C2A) (natural protein, E. coli, UniProt P0AAM3 2-90, looked up)
chain: AIGVPGQIRTIDGNQAKVDVCGIQRDVDLTLVGSCDENGQPRVGQWVLVHVGFAMSVINEAEARDTLDALQNMFDVEPDVGALLYGEEK
notes: HypC of Escherichia coli with the exchange C2A (codon 2 TGC to GCG); single major species, deconvoluted mass 10,611 Da, without the modifications seen on native HypC; lacking M1 as native HypC; also called StrepII-HypCC2A; source: E. coli DHP-D (ΔhypD) carrying pT-hypDC(C2A)Strep, co-produced with HypD; purified anoxically (StrepTactin Sepharose); not shown: StrepII, C-terminal, kept
